Assay: soluble on expression in E. coli; label from the status in PepcDB or PDB records
In the case of “MSLEAKQTKKSLPLRSEIPVEETWRLEDIFPTDEAWEQEFQEVKKMIPKLAEYQGRLGESADVLYEALQYQDEVSMRLGKLYTYAHMRYDQDTTNAFYQGLNDRATSLYSEASSAMAFIVPEILAIDEVKLRSFLEEKQELKLYEHALDEINRQRPHVLSAEEEALLAQAAEVMQSSSSTFSMLNNADLTFPTIIDENGEEVEVTHGRFIRFLESTDRRVRRDAFKAVYDTYEKYKNTFASTLAGTVKKDNFFARVRRYKSAREAALSSNNIPESVYDNLIETVHEHLPLLHRYVRLRKKVLGLDELHMYDLYTPLVQDVKMEVTYEEAKEYMLKALAPLGEEYISIVKEGLENRWVDVRENKGKRSGAYSSGAYGTHPYILLNWQDNVNNLFTLVHEFGHSVHSYYTRKTQPYPYANYSIFVAEVASTCNEALLNDYLLKTMDEEKKRLYLLNHYLEGFRGTVFRQTMFAEFEHMIHIKAQEGEALTADSLTSLYYELNKKYFGDDIVVDQEIGLEWARIPHFYYNYYVYQYATGFSAATALSKQILEEGEPAVKRYIEFLKAGSSDYPIEVLKKAGVDMTSAEPIRQACQVFAEKLEEMENLLSEGHHHHHH”, the “soluble on expression in E. coli” value is reported as “soluble”.
In the case of “GPGSMSLLNTTLQTLVVRLRDMSGNVTQQKLHNRVFDAYEAKSLVFEAISPEQQAVMQQFGTIPSQHPAGQPVLLDGWADLLTVHREDNLYQLLPRRAKNNASYSTMRAICCSAGSPFTMDHRVDPIDYKFVFRAADMEVRNKFNATNQDKIPPTIWFDGILSAPNDSGLVSCHNSLSPAHINNLAGTYQFLKEWSNEPPEGDRHRQLKEMYSNLLSKRTHLFIGSSSVPGREILNYARSKNVFVYAKRGMHYVFHA”, the “soluble on expression in E. coli” value is reported as “not soluble”.
In the case of “MSLTERVLVTGGGGFVACHLIQQLLASGNVVNTTVRNLTNRAKVLPLLTLQKQHPGKLYLFEADLLVDGAFDAPMHDCTVVHHVASPFLLPEKIKDGRREMLEPALLGTRNVLSSVDKTPSVLRVVMTSTVGAIFGDYIDVLHMKNKTLTEDYFNTSSTLETNPYHYAKVEAEKEAWRICEKQTRWSLVTINPGMILGPSLTPASDSGSLFLLDEMFRGYFFYGMPDLSLTTVDVRDVAAAHIIAANKVDAQGRYILAEQHMISFVEIAGIVRRLHRRPWLLPRYRIPDAIVRLIGPFFGLTQDYLSKHLGIRFVVDNQRSLNDLGIKYRSITETLTDHYRCWDMQRQLNEGHHHHHH”, the “soluble on expression in E. coli” value is reported as “soluble”.
In the case of “GSAGKFIVIFKNDVSEDKIRETKDEVIAEGGTITNEYNMPGMKGFAGELTPQSLTKFQGLQGDLIDSIEEDGIVTTQ”, the “soluble on expression in E. coli” value is reported as “soluble”.
With “MPGIAIIGAQWGDEGKGKVVDVLAREADYVIRYQGGANAGHTVVAEGKVFKLNLLPSGVIHPHAVNVLGDGMVIDPFRFQEEVEGLRKEGFDPKILVSERAHLVLPHHKHVESRHNFVGTTGRGIGPAYSDRARRVGIRAGDLLDEATLRERVRRLLAEKPNSTREAGWDTEEKALADLHRMREILSPYIADTGSLLREAWRKGKRLLFEGAQATLLDLNYGTYPYVTSSHPTVGGILVGTGLSHKAITKVYGVAKAYTTRVGEGPFPTELQGELAHHLREKGGEYGTTTGRPRRVGWLDLVALRYACEVNGFDGLVLTKLDVLSGLEKVKVAVEYLDGARPGEASPEAVRYLELPGWGDLSHVKRREDLPANLLRYLELVEEHTGVPVVLFSTSPRREDTFGAVSWV” the “soluble on expression in E. coli” value was “soluble”.
In the case of “MSLNTSRKERSVSTFSIVGYDPKTDELGIAVQSKFLGVGAIVPWAKAGVGAIATQSYANTSYGSKGLDLLARGKTAEETLALLINEDADRHLRQVGIVDAKGRAASFTGQGCYEWAGSMTGHCFAVQGNLLVSEETVKTMAQKFVQATGSLAERLLLTLEAGQCAGGDRRGKQSAALLIVKEKGGYGGFNDRLIDLRVDDHPEPIQELKRIFELQQLYFAKPKEQDQLPLTDDRISIIKSSLHSLGYLSLTQHWRDALQQFIATENLEGRMGTGTQTIDRVVFSFLQKKAKEEGHHHHHH”, the “soluble on expression in E. coli” value is reported as “soluble”.
In the case of “MCMYEADVRINGTLIWYYFICKREVWLISHGITADQEDENIEIGRFIHENAYSREKKEIDFDNFKVDVADSIDGKIIVQEVKKSSKFKKSARMQLLFYIYEIKKSGIDARGILLFPEERKREEVVLDEASQKELDSVIKDIFKIVNLEKPPIPEKCKYCRNCAYSELCWA”, the “soluble on expression in E. coli” value is reported as “not soluble”.
In the case of “MGSDKIHHHHHHMSAEPIIQVENLSKMYRLGLKNEIHDSIAEAAVSWLKTPVKNYRNLKSLNTFGVPVDEDDPGVLWALRDVSFEVAEGEVLGIIGRNGAGKSTLLKVLSRITEPTRGRVIINGRVASLLEVGTGFHPDLTGRENVFMNGSILGMRKGEIAAKFDEIVDFAGLDRFIDTPIKRYSSGMVMRLAFSVAAHLEPEILIIDEVLAVGDAAFQKKCLDKMHKVASGGRTVLFVSHQLNSVSALCGRVMHMDSGRIIKNGDTRQVIDHYLTSAGFGVTTALHDRKDRCGAGHVRFVNSWIEDMQGNRLASAVSGEPVRIALEYQSHAEESFSDVKVYLRLYSMLNKPAGLFSNVYTEERIDISAGENGVLYCTVPRMMLNGGRYFFHLKLEAQGRQLDHIENAGYMEVEAGNVYANGKMPNDQWVYLHDYGWSGEPLHKG”, the “soluble on expression in E. coli” value is reported as “not soluble”.
In the case of “KTVPSGQAGQGFAEKGPWKKLGLTYTQKTEIQRIHHNTRAEMDKVLTTEQKEQLKAAMQERQTQRSQGEGRGKWKKDIFTSLNLTDAQKSQIQEIRELSRKQMEAVLTPAQRQQLQQMEQNWKSRRQQGNSN”, the “soluble on expression in E. coli” value is reported as “not soluble”.
With “MQHECNTDYTIAKYIPYIKPKYVTQEGTTVLYVRYNYNRNKRTLISTGYNIKPEHWDAKRKWIKRACPHYEEIDACLIKITSKLGDILTYAKVNGIDPTVDFVLLELEKNREYDLRPNRVDMFDALERYIVEKAPSVSADQIKDYRTLRKHLTAFKEYSSQPVTFRNLNLTFYNEFMDYLFHKVVKPNGTVGLLTNSAGKIIRLLKGFVNYQIVKGIIPPIDLKNFKVVEEETDAIYLNEKELAAIYELDLSDDKQLEEIRDVFITGCFTGLRYSDLSTLSPEHIDLDNENINLKQRKVHKAVVIPMIDYVPEILKKYNYDLPKIPRYMFNERVKELGRKIKLSQKIEVVRRKGKEREKRVYEKWEMISSHTCRRSFCTNMYLSGFPAAELMRISGHKSPSAFMRYIKVDNQQAAKRLKELRAKLAR” the “soluble on expression in E. coli” value was “not soluble”.
For “GMEPSAKHLQLQTLLSERHAYLMEGNREAMHQLLSSDFSFIDGQGRQFDAETYLDHYVDPDQIQWSNQISESMVVEVFETTALVQEIVEDHFSYGRSMYIGRFRSVSLYHWANEGWKWHFHQLTPLDPS”, the “soluble on expression in E. coli” value was “soluble”.
With “SAEAGTGEPSPSVEGEHGTEYDTLPSDTVSLSDSDSDLSLPGGAEVEALSPMGLPGEEDSGPDEPPSPPSGLLPATVQPFHLRGMSSTFSQRSRDIFDCLEGAARRAPSSVAHTSMSDNGGFKRPLAPSGRSPVEGLGRAHRSPASPRVPPVPDYVAHPERWTKYSLEDVTEVSEQSNQATALAFLGSQSLAAPTDCVSSFNQDPSSCGEGRVIFTKPVRGVEARHERKRVLGKVGEPGRGGLGNPATDRGEGPVELAHLAGPGSPEAEEWGSPHGGLQEVEALSGSVHSGSVPGLPPVETVGFHGSRKRSRDHFRNKSSSPEDPGAEV” the “soluble on expression in E. coli” value was “soluble”.
For “MSNYTVKIKNSAKSDLKKIKHSYLKKSFLEIVETLKNDPYKITQSFEKLEPKYLERYSRRINHQHRVVYTVDDRNKEVLILSAWSHYD”, the “soluble on expression in E. coli” value was “not soluble”.
For “MGSSHHHHHHSSGLVPRGSDLQEDEDGVYFSSYGHYGIHEEMLKDKIRTESYRDFIYQNPHIFKDKVVLDVGCGTGILSMFAAKAGAKKVLGVDQSEILYQAMDIIRLNKLEDTITLIKGKIEEVHLPVEKVDVIISEWMGYFLLFESMLDSVLYAKNKYLAKGGSVYPDICTISLVAVSDVNKHADRIAFWDDVYGFKMSCMKKAVIPEAVVEVLDPKTLISEPCGIKHIDCHTTSISDLEFSSDFTLKITRTSMCTAIAGYFDIYFEKNCHNRVVFSTGPQSTKTHWKQTVFLLEKPFSVKAGEALKGKVTVHKNKKDPRSLTVTLTLNNSTQTYGLQ”, the “soluble on expression in E. coli” value was “soluble”.
With “VRGLLRVVGVRIEPGDHMLAIRDEIAGAIALGHSQGAVEKEDRDRLLGALDLSERTVEEIMRHRSQIEMIDADKPSAEVIAQVLASPHTRIPLYRGDHENILGIIHAKDLLREVSRLMRTGSTGALDELDILAVAMKPYFVPETTPLDEQMRQFLKRRTHFALVVDEYGALKGLITLEDIIEEIVGEINDEFDIAQEMTLKRADTGDYLVDGAMTI” the “soluble on expression in E. coli” value was “not soluble”.
In the case of “MNFESTRRRLTEKQADTVDRLTRAAVEVLREEGFAGLTVRSVAGIAGVAPATAYTYFSSKEHLVAEVFWRRLAGSPQPADDGLDRTGRVVAVLRHIALLVADEPELAGAVTNALLGRDPDVEHLRARIGLEIRDRLATALGEGHDPDVLEALELLYAGGLVRAGMGYGSYAQFADRLETSAKLILE”, the “soluble on expression in E. coli” value is reported as “not soluble”.
With “MSLAERLNNDFQFIEVGRKDPKKKLLRQRKKEFVEIYEPFKPQQSVEQAHRCLGCGNPYCEWKCPVHNFIPNWLKLVSEGNILAAAELSHQTNTLPEVCGRVCPQDRLCEGACTLNDGFGAVTIGSVEKYITDTAFAMGWRPDMSKVKPTGKRVAIIGAGPAGLGCADVLVRAGVTPVVFDKNPEIGGLLTFGIPEFKLEKTVLSNRREVFTGMGIEFRLNTEVGKDVTMEQLLAEYDAVFMGMGTYTYMKGGFPGEDLPGVHDALDFLIANVNRNLGFEKSPEDFVDMQGKKVVVLGGGDTAMDCNRTSIRQGAKAVTCAYRRDEANMPGSRKEVKNAKEEGVKFLYNRQPIAIVGEDKVEGVKVVETRLGEPDARGRRSPEPIPGSEEILPADAVVIAFGFRPSPAPWFEQHGIQLDSQGRVVAPEKGKFKHQTSNPKVFAGGDMVRGSDLVVTAIFEGRTAAEGILDYLEVEGHHHHHH” the “soluble on expression in E. coli” value was “soluble”.
For “MGSDKIHHHHHHDSKQSQDLIVKTAQAVSASGIKTTEFPFIAQPFRTSELSFRVGGPIDRLDVYAGNHYKQGSIIAEIDPRDFHIRKERAEAIYHQAKAEFERIEKLYEKNNVSASTYEKTKADYTTAKTAFDTASNELGDTRLTAPFDGYVGEVYIEKYQDVKPAQPVISFIDINRLKIEIYVTQNIAFASHPTDSVRIYFDAQPDKYYKAQIVEVSKGTTRNNLSYLLTAVLPNKEGKLLAGMSGKAIFDAPGTTDLTGVSIPQTALCYRPSEGEYVWVIDTNTRQVNRRTVKKGNLLPGGYVTITEGLRASETVATSGLRFLSDGMKVEISTKTNSL”, the “soluble on expression in E. coli” value was “not soluble”.
For “MGSDKIHHHHHHMQGIQQSLPLAVVRGEPVRELPADLFIPPEALEVFLEAFEGPLDLLLYLIRKQKLDVIELPLTLIAAQYLEYIRLLTDARIELAADYLVMAATLAEIKSRLLLPKMAVEDDEEEDPRVRLIKQLKAYESIREAAFKLDELPRLERDVHQARAQAAPGLKPEVIPPDVSLKELALAFAEVLKRASAFEHHQVKKEVLSTRERMSEILAKLDHEHFTPFTALFSPEEGRGGVVVSFLALMELVKETLVELYQAEPLSGIYVKAT”, the “soluble on expression in E. coli” value was “not soluble”.
For “MGSDKIHHHHHHMEPIIEIENFSAYYGEKIAVKNVTMKIFKNQITAIIGPSGCGKTTLLRSINRMNDHLPGFRVEGKIYFKGQDIYDPQLDVTEYRKRVGMVFQKPTPFPMSIYDNVAFGPRIHGVKSKHILDRIVEESLKKAALWDEVKSELNKSGTRLSGGQQQRLCIARALAVEPEVILLDEPTSALDPIATQRIEKLLEELSENYTIVIVTHNIGQAIRIADYIAFMYRGELIEYGPTREIVERPKNRLTEEYLTGKIG”, the “soluble on expression in E. coli” value was “not soluble”.
With “MSLESAVKAESAGKSVAASLKARLEKTYSAQDLKVLSVSETPVKGIYEVVVSGRQIIYTDAEGGYMFVGELINIDTRKNLTEERAADLNKIDFASLPLDKAIKEVRGNGKLKVAVFSDPDCPFCKRLEHEFEKMTDVTVYSFMMPIAGLHPDAARKAQILWCQPDRAKAWTDWMRKGKFPVGGSICDNPVAETTSLGEQFGFNGTPTLVFPNGRTQSGYSPMPQLEEIIRKNQQEGHHHHHH” the “soluble on expression in E. coli” value was “soluble”.

— the DeepSol protein solubility set
